These results are taken from patent US20170306031A1 (NGM BIOPHARMACEUTICALS, published 2017).

Numbering of substitutions follows the chain as printed. Where only a bound is given, the exact number is not on record here.

First the molecules themselves.
T1: human GFRAL (analyte in Biacore assays) (human, UniProt Q6UXV0 19-351, limits assumed)
T1 construct: injected in solution over captured antibody; also called hGFRAL
T1 sequence: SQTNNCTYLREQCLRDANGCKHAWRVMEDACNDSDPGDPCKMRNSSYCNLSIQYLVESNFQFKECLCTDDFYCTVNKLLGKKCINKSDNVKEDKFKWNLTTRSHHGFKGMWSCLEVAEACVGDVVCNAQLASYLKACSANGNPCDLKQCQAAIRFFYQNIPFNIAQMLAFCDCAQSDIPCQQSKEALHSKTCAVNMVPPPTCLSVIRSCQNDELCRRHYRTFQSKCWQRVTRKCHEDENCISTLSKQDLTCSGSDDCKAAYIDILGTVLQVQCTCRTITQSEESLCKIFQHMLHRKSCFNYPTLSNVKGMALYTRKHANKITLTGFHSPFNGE

T2: human GFRAL expressed on cells (human, UniProt Q6UXV0 20-394)
T2 sequence: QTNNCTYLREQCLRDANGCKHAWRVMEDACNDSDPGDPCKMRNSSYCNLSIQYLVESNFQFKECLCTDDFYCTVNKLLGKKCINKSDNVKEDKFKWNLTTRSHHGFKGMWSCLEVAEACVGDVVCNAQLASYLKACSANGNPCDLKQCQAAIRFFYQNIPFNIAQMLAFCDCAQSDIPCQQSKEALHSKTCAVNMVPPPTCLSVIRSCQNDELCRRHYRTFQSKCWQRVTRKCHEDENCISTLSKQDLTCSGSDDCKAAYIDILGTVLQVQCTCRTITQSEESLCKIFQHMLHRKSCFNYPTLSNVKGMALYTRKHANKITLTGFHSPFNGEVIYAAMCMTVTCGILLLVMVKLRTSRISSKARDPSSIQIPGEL

T3: mouse GFRAL expressed on cells (mouse, UniProt Q6SJE0 20-393)
T3 sequence: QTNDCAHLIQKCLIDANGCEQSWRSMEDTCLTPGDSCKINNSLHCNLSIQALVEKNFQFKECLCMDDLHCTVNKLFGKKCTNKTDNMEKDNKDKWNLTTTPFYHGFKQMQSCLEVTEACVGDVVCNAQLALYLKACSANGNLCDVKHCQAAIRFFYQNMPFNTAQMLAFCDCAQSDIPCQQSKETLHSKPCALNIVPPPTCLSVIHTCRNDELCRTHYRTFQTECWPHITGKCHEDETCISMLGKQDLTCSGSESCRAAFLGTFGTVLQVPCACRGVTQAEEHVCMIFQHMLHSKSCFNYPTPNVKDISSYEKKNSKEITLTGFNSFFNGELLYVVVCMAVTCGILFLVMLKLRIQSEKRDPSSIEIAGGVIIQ

T4: mouse GFRAL (analyte in Biacore assays) (mouse, UniProt Q6SJE0 20-349, limits assumed)
T4 construct: injected in solution over captured antibody
T4 sequence: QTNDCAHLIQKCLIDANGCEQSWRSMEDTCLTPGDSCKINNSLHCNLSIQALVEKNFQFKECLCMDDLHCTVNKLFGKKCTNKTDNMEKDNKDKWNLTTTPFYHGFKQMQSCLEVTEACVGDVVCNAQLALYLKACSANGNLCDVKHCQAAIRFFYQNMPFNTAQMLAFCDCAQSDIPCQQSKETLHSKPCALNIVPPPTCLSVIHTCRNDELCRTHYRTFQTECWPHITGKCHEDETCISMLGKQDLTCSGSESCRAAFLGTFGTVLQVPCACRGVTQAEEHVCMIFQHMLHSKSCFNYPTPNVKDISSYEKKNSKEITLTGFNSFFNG

B1: humanized anti-GFRAL antibody HC-375d/LC-375a (antibody, V domains shown)
VH: QVQLVQSGAEVKKPGSSVKVSCKASGYTFTDYYINWVRQAPGQGLEWIGRIYPGNGNTYHNEKFKGRATLTADKSTSTAYMELSSLRSEDTAVYYCAREGLYYDYDRYFDYWGQGTLVTVSS
VL: DIVMTQSPDSLAVSLGERATINCRASESVDTYGNSFMHWYQQKPGQPPKLLIYLASNLESGVPDRFSGSGSGTDFTLTISSLQAEDVAVYYCHQNNEDPPAFGGGTKVEIK
notes: humanized 5F12
B2: humanized anti-GFRAL antibody HC-375d/LC-375c (antibody, IgG1, V domains shown)
VH: B1 VH
VL: DIQMTQSPSSLSASVGDRVTITCRASESVDTYGNSFMHWYQQKPGKAPKLLIYLASNLESGVPSRFSGSGSGTDFTLTISSLQPEDFATYYCHQNNEDPPAFGGGTKVEIK
notes: humanized 5F12
B3: humanized anti-GFRAL antibody HC-375d/LC-375j (antibody, IgG1, V domains shown)
VH: B1 VH
VL: DIVLTQSPLSLPVTLGQPASISCRASESVDTYGNSFMHWYQQRPGQSPRLLIYLASNLESGVPDRFSGSGSRTDFTLKISRVEAEDVGVYYCHQNNEDPPAFGGGTKVEIK
notes: humanized 5F12
B4: humanized anti-GFRAL antibody HC-375e/LC-375a (antibody, V domains shown)
VH: B1 VH with I48M, K74E
VL: B1 VL
notes: humanized 5F12
B5: humanized anti-GFRAL antibody HC-375e/LC-375g (antibody, IgG1, V domains shown)
VH: B1 VH with I48M, K74E
VL: B1 VL with M4L, G72R
notes: humanized 5F12
B6: humanized anti-GFRAL antibody HC-375d/LC-375g (antibody, IgG1, V domains shown)
VH: B1 VH
VL: B1 VL with M4L, G72R
notes: humanized 5F12
B7: humanized anti-GFRAL antibody HC-375d/LC-375i (antibody, IgG1, V domains shown)
VH: B1 VH
VL: B3 VL with I2V, Y40F, R72G
notes: humanized 5F12
B8: humanized anti-GFRAL antibody HC-375e/LC-375c (antibody, IgG1, V domains shown)
VH: B1 VH with I48M, K74E
VL: B2 VL
notes: humanized 5F12
B9: humanized anti-GFRAL antibody HC-375e/LC-375j (antibody, IgG1, V domains shown)
VH: B1 VH with I48M, K74E
VL: B3 VL
notes: humanized 5F12
B10: antibody designated 17J16 (antibody, V domains shown)
VH: QVQLQQSGAELAKPGASVKMSCKTSGYTFTDYWIHWVKQRPGQGLEWIGYINPNSNYAEYNQKFKVKATLTADKSSSTAYLQLSRLTSEDSAVYYCARFDWNWYFHVWGAGSTVTVSS
VL: DVALTQIPLTLSVTVGQPASISCKSSQSLSDSDGKTYLNWLLQKPGQSPKRLIYLVSRLGSGVPDRFTGSGSGADFTLKISRVEAEDLGVYYCWQGTHFPQTFGGGTKLEIK
notes: mouse hybridoma monoclonal
B11: antibody designated 5A20 (antibody, V domains shown)
VH: QVQLQQSGPELMKPGASVILSCKAIGYTFTDYWIEWVKERPGHGLEWIGEILLGSDSIHFNEKFKGKATISADTSSNTAYMQLSSLTTEDSAIYYCVRQDWNWYFDVWGTGTTVTVSS
VL: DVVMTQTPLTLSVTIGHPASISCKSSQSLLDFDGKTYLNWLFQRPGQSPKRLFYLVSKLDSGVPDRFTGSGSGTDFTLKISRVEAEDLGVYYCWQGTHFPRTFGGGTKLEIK
notes: mouse hybridoma monoclonal
B12: antibody designated 2A9 (antibody, V domains shown)
VH: EVKLVESGGGLVKPGGSLKLSCAASGFTFSTYAMSWVRQTPEKRLEWVASITSGGTTYYTDSVKGRFTISRDNARNILYLQMSSLRSEDTAMYYCARDGNFYYYGMDYWGQGTSVTVSS
VL: DIVMTQSQKFMSTSVGDRVSITCKASQNVGTAVAWYQQKPGQSPKILIYSASNRFTGVPDRFTGSGSGTDFTLTISNMQSEDLADYFCQQYSSYFTFGGGTKLELK
notes: mouse hybridoma monoclonal
B13: antibody designated 24G2 (antibody, V domains shown)
VH: QVQLQQSGAELLKPGASVKLSCKASGYTFTTYWMHWVKQRPGQGLEWIGMIHPNSGSSNYNEKFKNKATLTVDKSSSTAYMQLSSLTSEDSAVYFCARSDYGFIPYFDYWGQGTTLTVSS
VL: DILLTQSPAILSVSPGERVSFSCRASQSIGTSIHWYQQRTNGSPRLLIKYASESISGIPSRFSGSGSGTDFTLIINSVESEDIADYYCQQSNSWPTFTFGAGTKLELK
notes: mouse hybridoma monoclonal

The first assay deals with T1, human GFRAL (analyte in Biacore assays). Kind of assay: Biacore SPR, antibody captured, human GFRAL injected. Here is the method:
Exemplary humanized anti-GFRAL antibodies identified in Example 6 were assayed for their binding affinity to human GFRAL. Binding affinity measurements were made in Biacore based assays. For example, equilibrium dissociation constant (KD) measurements were carried out with purified antibodies to evaluate their binding to human GFRAL. Using methods described in Example II, anti-mouse Fc antibody (Sigma-Aldrich, St. Louis, Mo.) was immobilized on all four flow cells of a CM5 chip using amine coupling reagents (GE Healthcare LifeSciences, Piscataway, N.J.). Purified humanized anti-GFRAL antibodies were captured (˜100 RUs) on flow cells 2, 3 and 4 using flow cell 1 as a reference. This was followed by injection of human GFRAL in PBS-P buffer) at a flow rate of 70 μL/min and the binding kinetics were evaluated at 25° C.
On to B1, for which binding was put at a Kd of 0.074 nM.
In turn, B2 displayed a Kd of 0.075 nM.
In turn, B3 registered a Kd of 0.046 nM. This Kd is about 1.6-fold lower than that of the molecule before.
As for B4, the equilibrium dissociation constant (Kd) was determined as 0.091 nM.
The same measure, in the same setting: under B5 stands 0.081 nM; under B6, 0.077 nM; under B7, 0.062 nM.
B8: binding was put at a Kd of 0.092 nM.
B9 showed a Kd of 0.048 nM. This Kd lies about 1.9-fold lower than the previous one.

In another assay the target is T2, human GFRAL expressed on cells. Kind of assay: cell-based or functional assay.
With B10, the “IC50, ERK phosphorylation in U2OS hGFRAL/hRET cells” value was found to be 0.1 nM.
Consider B11, for which the “IC50, ERK phosphorylation in U2OS hGFRAL/hRET cells” value came to 1.8 nM.
The same measure, in the same setting: the result for B12 reads 0.94 nM; that for B13, 1.86 nM.

A further assay shares this target. Kind of assay: cell-based or functional assay. The source holds these as a separate data set.
Turning to B1, the “IC50, ELK1-luciferase reporter (hGFRAL/hRET)” value (“IC50 … (hGFRAL/hRET)” for short) is 3.86 nM.
Same read-out and setting: under B2 stands 3.28 nM; under B3, 3.11 nM.
On to B4, for which the “IC50 … (hGFRAL/hRET)” value was found to be 2.81 nM.
In the case of B5, the “IC50 … (hGFRAL/hRET)” value amounted to 2.27 nM.
For the molecule B6, the “IC50 … (hGFRAL/hRET)” value was 2.79 nM.
Still for that read-out and setting: under B7 stands 2.75 nM; under B8, 2.2 nM.
Take B9: the “IC50 … (hGFRAL/hRET)” value stood at 4.01 nM.

The next assay has the same target. Kind of assay: cell-based or functional assay. This is another data set of the same source.
Take B10: the “IC50 … (hGFRAL/hRET)” value worked out at 0.666 nM.
Take B11: the “IC50 … (hGFRAL/hRET)” value was 3.19 nM.
The same measure, in the same setting: under B12 stands 3.71 nM.
As for B13, the “IC50 … (hGFRAL/hRET)” value was determined as 18.9 nM.

Another assay addresses T3, mouse GFRAL expressed on cells. Kind of assay: cell-based or functional assay.
As to B10, the “IC50, ELK1-luciferase reporter (mGFRAL/mRET)” value stood at 0.407 nM.
Take B11: the “IC50, ELK1-luciferase reporter (mGFRAL/mRET)” value turned out to be 0.6 nM.
The same measure, in the same setting: the result for B12 reads 7.87 nM; that for B13, 8.32 nM.

In another assay the target is T1, human GFRAL (analyte in Biacore assays). Kind of assay: Biacore SPR, antibody captured, GFRAL injected. As for the experimental part: (§1) In addition, the binding affinity of antibodies to human and mouse GFRAL were measured. For example, antibodies were rank ordered based on their binding affinity to human GFRAL and mouse GFRAL by low resolution KD measurement by Biacore. Briefly, an anti-mouse Fc antibody (Sigma-Aldrich, St. Louis, Mo.) was immobilized on all four flow cells of a CM5 chip using amine coupling reagents (GE Healthcare LifeSciences, Piscataway, N.J.). Purified antibodies were captured (˜100 RUs) on flow cells 2, 3 and 4 using flow cell 1 as a reference. This was followed by injection of human or mouse GFRAL (25 nM in PBS-P buffer) at a flow rate of 70 μL/m in and monitoring the binding kinetics at 25° C.
(§2) Binding affinity measurements were also made in additional Biacore based assays. For example, equilibrium dissociation constant (KD) measurements were carried out with purified antibodies to evaluate their binding to human GFRAL or mouse GFRAL. As mentioned above, anti-mouse Fc antibody (Sigma-Aldrich, St. Louis, Mo.) was immobilized on all four flow cells of a CM5 chip using amine coupling reagents (GE Healthcare LifeSciences, Piscataway, N.J.). Purified antibodies were captured (˜100 RUs) on flow cells 2, 3 and 4 using flow cell 1 as a reference. This was followed by injection of human or mouse GFRAL in PBS-P buffer) at a flow rate of 70 μL/min and the binding kinetics were evaluated at 25° C.
With B10, the dissociation constant (Kd) was less than 0.1 nM and the koff was approximately 1e-05 s⁻¹.
The like results for B11 were, in that order, 0.081 nM and 3.32e-05 s⁻¹.
With B12, the dissociation constant (Kd) was 0.25 nM and the off-rate constant (koff) is 0.000153 s⁻¹.
As for B13, binding was put at a Kd of 1.4 nM and the off-rate (koff) was 0.000696 s⁻¹.

In a further assay the target is T4, mouse GFRAL (analyte in Biacore assays). Kind of assay: Biacore SPR, antibody captured, GFRAL injected. As for the experimental part:
as §1, §2
B10 displayed a dissociation constant (Kd) of less than 0.1 nM and a dissociation rate constant (koff) of 1e-05 s⁻¹.
B11 had a Kd of less than 0.1 nM and a koff of 0.0004 s⁻¹.
The like results for B12 were, in that order, 3.6 nM and 0.0029 s⁻¹.
Turning to B13, the dissociation constant Kd is 5.02 nM and the koff stood at 0.00173 s⁻¹.
